Each block holds one molecule with its values, some of them ahead of it.
Experiments:
GFP-PICK1 BAR domain = experiment: cross-linking; HEK293 cells in 2 ml PBS with 0.3 mM DSS for 20 min at room temperature, quenched with 50 mM Tris, lysed, Western blot (anti-GFP or anti-PICK1); for untagged PICK1 after 5 min with 3 μM ionomycin and a range of extracellular CaCl2
[1] = biological target: the molecule itself; experiment: cross-linking; 100 nM purified his6 protein in 150 mM NaCl, 20 mM HEPES pH 7.4, 5 mM HEDTA, CaCl2 to give [Ca2+]free of 0, 2, 5, 12, 26 μM; 10 μM DSS for 20 min at room temperature, quenched with 50 mM Tris; Western blot with anti-PICK1
[2] = biological target: the molecule itself; experiment: cross-linking; HEK293 cells in 2 ml PBS with 0.3 mM DSS for 20 min at room temperature, quenched with 50 mM Tris, lysed, Western blot (anti-GFP or anti-PICK1); for untagged PICK1 after 5 min with 3 μM ionomycin and a range of extracellular CaCl2

stoichiometry N (GFP-PICK1 BAR domain): 2
Molecule: GFP-PICK1 BAR domain (domain or fragment)

B1: his64A-PICK1 (natural protein, UniProt Q9EP80 1-416, looked up)
chain: MFADLDYDIEEDKLGIPTVPGKVTLQKDAQNLIGISIGGGAQYCPCLYIVQVFDNTPAALDGTVAAGDEITGVNGRSIKGKTKVEVAKMIQEVKGEVTIHYNKLQADPKQGMSLDIVLKKVKHRLVENMSSGTADALGLSRAILCNDGLVKRLEELERTAELYKGMTEHTKNLLRAFYELSQTHRAFGDVFSVIGVREPQPAASEAFVKFADAHRSIEKFGIRLLKTIKPMLTDLNTYLNKAIPDTRLTIKKYLDVKFEYLSYCLKVKEMAAAAYSCIALGEPLYRVSTGNYEYRLILRCRQEARARFSQMRKDVLEKMELLDQKHVQDIVFQLQRFVSTMSKYYNDCYAVLRDADVFPIEVDLAHTTLAYGPNQGGFTDGEDEEEEEEDGAAREVSKDARGATGPTDKGGSWCDS
notes: PICK1 with residues 271DDEE274 in the BAR domain substituted by alanines; source: E. coli BL21(DE3), pET28, purified (Ni-NTA)
stoichiometry N [1]: 2

B2: his6ΔNT-PICK1 (natural protein, UniProt Q9EP80 1-416, looked up)
chain: MFAKLGIPTVPGKVTLQKDAQNLIGISIGGGAQYCPCLYIVQVFDNTPAALDGTVAAGDEITGVNGRSIKGKTKVEVAKMIQEVKGEVTIHYNKLQADPKQGMSLDIVLKKVKHRLVENMSSGTADALGLSRAILCNDGLVKRLEELERTAELYKGMTEHTKNLLRAFYELSQTHRAFGDVFSVIGVREPQPAASEAFVKFADAHRSIEKFGIRLLKTIKPMLTDLNTYLNKAIPDTRLTIKKYLDVKFEYLSYCLKVKEMDDEEYSCIALGEPLYRVSTGNYEYRLILRCRQEARARFSQMRKDVLEKMELLDQKHVQDIVFQLQRFVSTMSKYYNDCYAVLRDADVFPIEVDLAHTTLAYGPNQGGFTDGEDEEEEEEDGAAREVSKDARGATGPTDKGGSWCDS
notes: source: E. coli BL21(DE3), pET28, purified (Ni-NTA)
stoichiometry N [1]: 2

B3: Amphiphysin2-GFP (natural protein, UniProt O00499 1-593, looked up)
chain: MAEMGSKGVTAGKIASNVQKKLTRAQEKVLQKLGKADETKDEQFEQCVQNFNKQLTEGTRLQKDLRTYLASVKAMHEASKKLNECLQEVYEPDWPGRDEANKIAENNDLLWMDYHQKLVDQALLTMDTYLGQFPDIKSRIAKRGRKLVDYDSARHHYESLQTAKKKDEAKIAKPVSLLEKAAPQWCQGKLQAHLVAQTNLLRNQAEEELIKAQKVFEEMNVDLQEELPSLWNSRVGFYVNTFQSIAGLEENFHKEMSKLNQNLNDVLVGLEKQHGSNTFTVKAQPSDNAPAKGNKSPSPPDGSPAATPEIRVNHEPEPAGGATPGATLPKSPSQLRKGPPVPPPPKHTPSKEVKQEQILSLFEDTFVPEISVTTPSQFEAPGPFSEQASLLDLDFDPLPPVTSPVKAPTPSGQSIPWDLWEPTESPAGSLPSGEPSAAEGTFAVSWPSQTAEPGPAQPAEASEVAGGTQPAAGAQEPGETAASEAASSSLPAVVVETFPATVNGTVEGGSGAGRLDLPPGFMFKVQAQHDYTATDTDELQLKAGDVVLVIPFQNPEEQDEGWLMGVKESDWNQHKELEKCRGVFPENFTERVP
notes: Amphiphysin 2, BAR domain protein; plasmid a gift from Dr. Emmanuel Boucrot; Called Amphiphysin2-GFP in the methods and ^GFPAmphiphysin in the results and the legend; also called ^GFPAmphiphysin; ^GFPamphiphysin; source: HEK293, transfected, cross-linked in cells, in lysate
stoichiometry N [2]: 2

B4: GFP-Endophilin A1 (natural protein, UniProt Q99962 1-352, looked up)
chain: MSVAGLKKQFHKATQKVSEKVGGAEGTKLDDDFKEMERKVDVTSRAVMEIMTKTIEYLQPNPASRAKLSMINTMSKIRGQEKGPGYPQAEALLAEAMLKFGRELGDDCNFGPALGEVGEAMRELSEVKDSLDIEVKQNFIDPLQNLHDKDLREIQHHLKKLEGRRLDFDYKKKRQGKIPDEELRQALEKFDESKEIAESSMFNLLEMDIEQVSQLSALVQAQLEYHKQAVQILQQVTVRLEERIRQASSQPRREYQPKPRMSLEFPTGDSTQPNGGLSHTGTPKPSGVQMDQPCCRALYDFEPENEGELGFKEGDIITLTNQIDENWYEGMLHGHSGFFPINYVEILVALPH
notes: Endophilin A1, BAR domain protein; plasmid a gift from Dr. Ira Milosevic; The methods name only one 'GFP-endophilin'; source: HEK293, transfected, cross-linked in cells, in lysate
stoichiometry N [2]: 2

Source: publication PMC9201945 (Frontiers in Molecular Neuroscience, 2022)
